In patent US20230279121A1:

Legend:
[1] = biological target: Rhesus macaque EGFR (Rhesus macaque) (UniProt P55245); assay: SPR
[2] = biological target: human EGFR (human) (UniProt P00533); assay: SPR
[3] = biological target: recombinant human EGFR-His (human) (UniProt P00533); assay: SPR, Biacore 8K, 37 C; protein captured on anti-hFc IgG chip, EGFR-His injected; N = 4

PANI-H_S62R-L_F87Y-L_D92R (scFv) showed a Kd [1] of 5.36 nM, a koff [1] of 0.00112 s⁻¹ and a kon [1] of 209000 M⁻¹ s⁻¹. For the same molecule, the Kd [2] was 3.38 nM, the koff [2] was 0.00099 s⁻¹ and the kon [2] was 293000 M⁻¹ s⁻¹.

B1: EGFR-Protein-4 (bispecific antibody, part only; not given: unrelated Fab, Fc and junctions, not shown: another chain or arm of the molecule; a dimerising Fc or GST)
scFv: DIQMTQSPSSLSASVGDRVTITCQASQDISNYLNWYQQKPGKAPKLLIYDASNLETGVPSRFSGSGSGTDFTFTISSLQPEDIATYYCQHFRHLPLAFGCGTKVEIKGGGGSGGGGSGGGGSGGGGSQVQLQESGPGLVKPSETLSLTCTVSGGSVSSGDYYWTWIRQSPGKCLEWIGHIYYSGNTNYNPSLKSRLTISIDTSKTQFSLKLSSVTAADTAIYYCVRDRVTGAFDIWGQGTMVTVSS
B1 was tested, and the Kd [3] was 2.36 nM, the koff [3] was 0.000745 s⁻¹ and the kon [3] was 316000 M⁻¹ s⁻¹.
